From US20240410900A1

Legend:
[1] = target: non-targeted IgG-IL2 (interleukin-2 fused to the C-terminus of a heavy chain of a germline antibody, which is not binding to a target); experiment: bridging ELISA, IgG-IL2-Bi and -Dig, binder 3.9 ng/mL assay / 78 ng/mL matrix
[2] = target: TCB (T-cell bispecific format) drug antibody; experiment: bridging ELISA, drug-Bi and drug-Dig, human pooled serum, binder 7.8 ng/mL assay / 156 ng/mL matrix
[3] = target: non-targeted IgG-IL2 (interleukin-2 fused to the C-terminus of a heavy chain of a germline antibody, which is not binding to a target); experiment: as above
[4] = target: targeted IgG-IL2 (interleukin-2 fused to the C-terminus of a heavy chain of an antibody specifically binding to a therapeutic target); experiment: as above
[5] = target: non-targeted IgG-IL2 (interleukin-2 fused to the C-terminus of a heavy chain of a germline antibody, which is not binding to a target); experiment: bridging ELISA, IgG-IL2-Bi and -Dig, binder 0.00 ng/mL (blank)
[6] = target: TCB (T-cell bispecific format) drug antibody; experiment: bridging ELISA, drug-Bi and drug-Dig, human pooled serum, binder 0.24 ng/mL assay / 4.9 ng/mL matrix
[7] = target: non-targeted IgG-IL2 (interleukin-2 fused to the C-terminus of a heavy chain of a germline antibody, which is not binding to a target); experiment: as above
[8] = target: targeted IgG-IL2 (interleukin-2 fused to the C-terminus of a heavy chain of an antibody specifically binding to a therapeutic target); experiment: as above
[9] = target: drug antibody (capture and tracer of the bridging immunoassay of FIGS. 2, 7 and 8; not named); experiment: bridging immunoassay, drug antibody as capture and tracer, binder at 1000 ng/ml
[10] = target: non-targeted IgG-IL2 (interleukin-2 fused to the C-terminus of a heavy chain of a germline antibody, which is not binding to a target); experiment: bridging ELISA, IgG-IL2-Bi and -Dig, binder 7.8 ng/mL assay / 156 ng/mL matrix
[11] = target: TCB (T-cell bispecific format) drug antibody; experiment: bridging ELISA, drug-Bi and drug-Dig, human pooled serum, binder 0.06 ng/mL assay / 1.2 ng/mL matrix
[12] = target: non-targeted IgG-IL2 (interleukin-2 fused to the C-terminus of a heavy chain of a germline antibody, which is not binding to a target); experiment: as above
[13] = target: targeted IgG-IL2 (interleukin-2 fused to the C-terminus of a heavy chain of an antibody specifically binding to a therapeutic target); experiment: as above
[14] = target: non-targeted IgG-IL2 (interleukin-2 fused to the C-terminus of a heavy chain of a germline antibody, which is not binding to a target); experiment: bridging ELISA, IgG-IL2-Bi and -Dig, binder 0.2 ng/mL assay / 4.9 ng/mL matrix
[15] = target: TCB (T-cell bispecific format) drug antibody; experiment: bridging ELISA, drug-Bi and drug-Dig, human pooled serum, binder 0.12 ng/mL assay / 2.4 ng/mL matrix
[16] = target: non-targeted IgG-IL2 (interleukin-2 fused to the C-terminus of a heavy chain of a germline antibody, which is not binding to a target); experiment: as above
[17] = target: targeted IgG-IL2 (interleukin-2 fused to the C-terminus of a heavy chain of an antibody specifically binding to a therapeutic target); experiment: as above
[18] = target: non-targeted IgG-IL2 (interleukin-2 fused to the C-terminus of a heavy chain of a germline antibody, which is not binding to a target); experiment: bridging ELISA, IgG-IL2-Bi and -Dig, binder 0.06 ng/mL assay / 1.2 ng/mL matrix
[19] = target: non-targeted IgG-IL2 (interleukin-2 fused to the C-terminus of a heavy chain of a germline antibody, which is not binding to a target); experiment: bridging ELISA, IgG-IL2-Bi and -Dig, binder 63 ng/mL assay / 1250 ng/mL matrix
[20] = target: TCB (T-cell bispecific format) drug antibody; experiment: bridging ELISA, drug-Bi and drug-Dig, human pooled serum, binder 250 ng/mL assay / 5000 ng/mL matrix
[21] = target: non-targeted IgG-IL2 (interleukin-2 fused to the C-terminus of a heavy chain of a germline antibody, which is not binding to a target); experiment: as above
[22] = target: targeted IgG-IL2 (interleukin-2 fused to the C-terminus of a heavy chain of an antibody specifically binding to a therapeutic target); experiment: as above
[23] = target: TCB (T-cell bispecific format) drug antibody; experiment: bridging ELISA, drug-Bi and drug-Dig, human pooled serum, binder 0.00 ng/mL (blank)
[24] = target: non-targeted IgG-IL2 (interleukin-2 fused to the C-terminus of a heavy chain of a germline antibody, which is not binding to a target); experiment: as above
[25] = target: targeted IgG-IL2 (interleukin-2 fused to the C-terminus of a heavy chain of an antibody specifically binding to a therapeutic target); experiment: as above
[26] = target: non-targeted IgG-IL2 (interleukin-2 fused to the C-terminus of a heavy chain of a germline antibody, which is not binding to a target); experiment: bridging ELISA, IgG-IL2-Bi and -Dig, binder 0.5 ng/mL assay / 10 ng/mL matrix

B1: multivalent anti-PG antibody derived from clone 1.7.24 (mixed Pool 2, 3, 4) (antibody, V domains shown)
VH: EVKLLESGGGLVQPGGSLKLSCAASGFDFSRYWMNWVRQAPGKGLEWIGEITPDSSTINYTPSLKDKFIISRDNAKNTLYLQMIKVRSEDTALYYCVRPYDYGAWFASWGQGTLVTVSA
VL: QAVVTQESALTTSPGETVTLTCRSSTGAVTTSNYANWVQEKPDHLFTGLIGGTNKRAPGVPARFSGSLIGDKAALTITGAQTEDEAIYFCALWYSNHWVFGGGTKLTVL
modifications: lysine amines derivatised with SATP or MHS and cross-linked (sites not given)
Which signal [AU] [1] does the source give for B1 here?
Its signal [AU] is 0.286 AU.

And the signal [AU] [2]?
Its signal [AU] is 0.654 AU.

What about the signal [AU] [3] of the same binder?
The signal [AU] was 0.137 AU.

And the signal [AU] [4]?
Its signal [AU] is 0.475 AU.

And the signal [AU] [5]?
The signal [AU] was 0.053 AU.

What about the signal [AU] [6] of the same binder?
Its signal [AU] is 0.0645 AU.

And the signal [AU] [7]?
The signal [AU] was 0.045 AU.

And the signal [AU] [8]?
The signal [AU] was 0.055 AU.

What about the signal-to-noise ratio (S/N) [9] of the same binder?
Its signal-to-noise ratio (S/N) is 83.6.

What about the signal [AU] [10] of the same binder?
The signal [AU] was 0.539 AU.

And the signal [AU] [11]?
Its signal [AU] is 0.049 AU.

And the signal [AU] [12]?
Its signal [AU] is 0.042 AU.

And the signal [AU] [13]?
The signal [AU] was 0.042 AU.

And the signal [AU] [14]?
Its signal [AU] is 0.0645 AU.

What about the signal [AU] [15] of the same binder?
Its signal [AU] is 0.0555 AU.

What about the signal [AU] [16] of the same binder?
Its signal [AU] is 0.0395 AU.

What about the signal [AU] [17] of the same binder?
The signal [AU] was 0.044 AU.

What about the signal [AU] [18] of the same binder?
The signal [AU] was 0.056 AU.

And the signal [AU] [19]?
The signal [AU] was 2.85 AU.

And the signal [AU] [20]?
Its signal [AU] is 2.99 AU.

And the signal [AU] [21]?
Its signal [AU] is 2.17 AU.

What about the signal [AU] [22] of the same binder?
The signal [AU] was 2.99 AU.

And the signal [AU] [23]?
The signal [AU] was 0.0425 AU.

What about the signal [AU] [24] of the same binder?
Its signal [AU] is 0.041 AU.

What about the signal [AU] [25] of the same binder?
Its signal [AU] is 0.0395 AU.

What about the signal [AU] [26] of the same binder?
Its signal [AU] is 0.0825 AU.
